Assay [1] deals with collagen III (purified, Sigma; acid-soluble human collagen type III in BIAcore) (human) (UniProt P02461).
For assay [2], the target named is collagen I (purified, Sigma; acid-soluble human collagen type I in BIAcore) (human) (UniProt P02452).
For assay [3] the target is unchanged. The assay is described as follows: SPR (BIAcore), equilibrium binding to immobilised collagen I. In general terms: Surface plasmon resonance follows binding to a sensor surface in real time, without labels.
Assay [4] has as its target collagen III (purified, Sigma; acid-soluble human collagen type III in BIAcore) (human) (UniProt P02461). The assay is described as follows: SPR (BIAcore), biphasic dissociation from collagen III, component Koff2.
The target of assay [5] is collagen I (purified, Sigma; acid-soluble human collagen type I in BIAcore) (human) (UniProt P02452). The assay is described as follows: SPR (BIAcore), biphasic dissociation from collagen I, component Koff2.
Assay [6] concerns the target collagen III (purified, Sigma; acid-soluble human collagen type III in BIAcore) (human) (UniProt P02461). The assay is described as follows: BIAcore, equilibrium binding to immobilized human collagen III.
Assay [7] has as its target collagen I (purified, Sigma; acid-soluble human collagen type I in BIAcore) (human) (UniProt P02452). The assay is described as follows: SPR (BIAcore), biphasic dissociation from collagen I, component Koff1.
For assay [8], the target named is collagen III (purified, Sigma; acid-soluble human collagen type III in BIAcore) (human) (UniProt P02461). The assay is described as follows: SPR (BIAcore), biphasic dissociation from collagen III, component Koff1.
For assay [9] the target is unchanged. The assay is described as follows: SPR (BIAcore), equilibrium binding to immobilised collagen III.
The target of assay [10] is collagen I (purified, Sigma; acid-soluble human collagen type I in BIAcore) (human) (UniProt P02452). The assay is described as follows: BIAcore, equilibrium binding to immobilized human collagen I.
For assay [11], the target named is hLAIR-1-CD3ζ chimera on 2B4 NFAT-GFP reporter cells (human) (UniProt Q6GTX8).
Assay [12] has the same target. This is another data set of the same source.

Chain of collagen III (purified, Sigma; acid-soluble human collagen type III in BIAcore) (human) (P02461 154-1221): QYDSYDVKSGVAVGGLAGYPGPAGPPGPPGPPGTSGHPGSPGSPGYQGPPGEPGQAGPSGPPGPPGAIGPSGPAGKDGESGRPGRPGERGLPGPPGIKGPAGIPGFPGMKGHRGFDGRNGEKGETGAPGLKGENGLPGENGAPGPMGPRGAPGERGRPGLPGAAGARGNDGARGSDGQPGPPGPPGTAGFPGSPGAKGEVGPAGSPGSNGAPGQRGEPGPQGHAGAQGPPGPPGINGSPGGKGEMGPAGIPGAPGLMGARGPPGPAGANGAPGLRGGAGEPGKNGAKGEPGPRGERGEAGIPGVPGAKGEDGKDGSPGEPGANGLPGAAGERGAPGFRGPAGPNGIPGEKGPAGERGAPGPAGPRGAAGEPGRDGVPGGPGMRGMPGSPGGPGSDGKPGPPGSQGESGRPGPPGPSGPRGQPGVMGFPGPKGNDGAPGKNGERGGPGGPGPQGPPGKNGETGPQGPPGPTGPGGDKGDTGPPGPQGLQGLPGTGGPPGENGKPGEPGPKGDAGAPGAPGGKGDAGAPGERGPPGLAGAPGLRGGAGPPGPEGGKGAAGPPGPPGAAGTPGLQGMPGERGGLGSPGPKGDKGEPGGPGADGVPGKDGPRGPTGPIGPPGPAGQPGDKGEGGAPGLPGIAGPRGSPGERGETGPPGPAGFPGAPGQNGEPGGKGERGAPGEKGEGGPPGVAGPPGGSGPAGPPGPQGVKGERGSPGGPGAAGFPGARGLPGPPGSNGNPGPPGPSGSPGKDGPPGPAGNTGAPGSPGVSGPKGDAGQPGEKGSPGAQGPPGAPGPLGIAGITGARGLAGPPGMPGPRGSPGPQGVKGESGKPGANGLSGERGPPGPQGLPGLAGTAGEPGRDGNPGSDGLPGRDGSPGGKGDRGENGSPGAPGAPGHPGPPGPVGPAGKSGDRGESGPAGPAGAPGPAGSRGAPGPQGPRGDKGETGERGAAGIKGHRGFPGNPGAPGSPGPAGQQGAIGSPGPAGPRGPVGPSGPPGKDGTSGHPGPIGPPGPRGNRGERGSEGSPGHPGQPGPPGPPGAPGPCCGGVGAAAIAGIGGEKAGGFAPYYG
Chain of hLAIR-1-CD3ζ chimera on 2B4 NFAT-GFP reporter cells (human) (Q6GTX8 22-165, change not shown): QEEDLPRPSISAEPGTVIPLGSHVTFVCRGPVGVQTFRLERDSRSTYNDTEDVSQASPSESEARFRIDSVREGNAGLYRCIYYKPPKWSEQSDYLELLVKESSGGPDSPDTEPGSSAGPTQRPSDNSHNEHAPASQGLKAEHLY

In turn, Control IgG (Fc fusion) returned a percentage of GFP-positive hLAIR-1-CD3ζ reporter cells on Collagen III pre-incubated with Control IgG (45.3 without block) in [1] of 42.8%. Besides, the percentage of GFP-positive hLAIR-1-CD3ζ reporter cells on Collagen I pre-incubated with Control IgG (55.0 without block) in assay [2] was 50.3%.

By koff is commonly meant the rate constant with which the complex falls apart. Higher therefore signals fast dissociation. A word on the Kd: it is the concentration at which binding is half-saturated. Turning to “LAIR-2-IgG (human LAIR-2 fused to the Fc region of human IgG1) (from UniProt Q6ISS4 22-152) (Fc fusion)”, the Bmax (mol/mol Col I) in assay [3] is 10.4. Besides, the koff was determined as 0.0046 s⁻¹ in [4], 0.0073 s⁻¹ in assay [5], 0.00083 s⁻¹ in assay [7] and 0.0005 s⁻¹ in [8]. Moreover, the Kd in assay [6] was found to be 41.4 nM; in assay [10], 34.6 nM. The same substance returned a Bmax (mol/mol Col III) in assay [9] of 10.7. Besides, in assay [1], the percentage of GFP-positive hLAIR-1-CD3ζ reporter cells on Collagen III pre-incubated with LAIR-2-IgG (45.3 without block) worked out at 8.4%. This substance gave a percentage of GFP-positive hLAIR-1-CD3ζ reporter cells on Collagen I pre-incubated with LAIR-2-IgG (55.0 without block) in assay [2] of 0.5%.

For “collagen I (purified, Sigma; acid-soluble human collagen type I in BIAcore) (from UniProt P02452 162-1218; P08123 80-1119) (ligand)”, the percentage of GFP-positive reporter cells on coated Col I (parental cells 0.3) in [11] was 33.8%. In addition, the percentage of GFP-positive reporter cells on Collagen I without block (parental cells 0.2) in assay [12] was 55%.
